Experimental data from paper doi:10.1101/2024.11.16.623948.

Assays:
[1] = molecular target: FLAG-Ago1 (Drosophila melanogaster) (UniProt A1Z9J5); experiment: filter binding; details: guide 5' phosphate; RBNS: 20 mM HEPES-KOH pH 7.9, 100 mM KOAc, 3.5 mM Mg(OAc) (magnesium acetate), 0.05% CHAPS, 2 mM DTT, 8% glycerol, BSA, tRNA, 25 C 2 h; filter binding: 25 mM …
[2] = molecular target: T1, PUM2 (human) (UniProt Q8TB72); experiment: RBNS; details: RBNS: 20 mM HEPES-KOH pH 7.9, 100 mM KOAc, 3.5 mM Mg(OAc) (magnesium acetate), 0.05% CHAPS, 2 mM DTT, 8% glycerol, BSA, tRNA, 25 C 2 h; filter binding: 25 mM …
T1 sequence: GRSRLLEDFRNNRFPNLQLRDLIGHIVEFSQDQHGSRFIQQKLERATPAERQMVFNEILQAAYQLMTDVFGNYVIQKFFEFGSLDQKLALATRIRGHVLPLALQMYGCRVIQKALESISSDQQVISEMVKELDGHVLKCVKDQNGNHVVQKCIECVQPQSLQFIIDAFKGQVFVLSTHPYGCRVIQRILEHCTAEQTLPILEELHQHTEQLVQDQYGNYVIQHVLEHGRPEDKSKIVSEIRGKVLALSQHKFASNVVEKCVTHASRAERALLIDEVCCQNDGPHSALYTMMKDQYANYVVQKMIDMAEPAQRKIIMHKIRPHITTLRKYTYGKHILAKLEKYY

Chain of FLAG-Ago1 (Drosophila melanogaster) (A1Z9J5 entry or part of it): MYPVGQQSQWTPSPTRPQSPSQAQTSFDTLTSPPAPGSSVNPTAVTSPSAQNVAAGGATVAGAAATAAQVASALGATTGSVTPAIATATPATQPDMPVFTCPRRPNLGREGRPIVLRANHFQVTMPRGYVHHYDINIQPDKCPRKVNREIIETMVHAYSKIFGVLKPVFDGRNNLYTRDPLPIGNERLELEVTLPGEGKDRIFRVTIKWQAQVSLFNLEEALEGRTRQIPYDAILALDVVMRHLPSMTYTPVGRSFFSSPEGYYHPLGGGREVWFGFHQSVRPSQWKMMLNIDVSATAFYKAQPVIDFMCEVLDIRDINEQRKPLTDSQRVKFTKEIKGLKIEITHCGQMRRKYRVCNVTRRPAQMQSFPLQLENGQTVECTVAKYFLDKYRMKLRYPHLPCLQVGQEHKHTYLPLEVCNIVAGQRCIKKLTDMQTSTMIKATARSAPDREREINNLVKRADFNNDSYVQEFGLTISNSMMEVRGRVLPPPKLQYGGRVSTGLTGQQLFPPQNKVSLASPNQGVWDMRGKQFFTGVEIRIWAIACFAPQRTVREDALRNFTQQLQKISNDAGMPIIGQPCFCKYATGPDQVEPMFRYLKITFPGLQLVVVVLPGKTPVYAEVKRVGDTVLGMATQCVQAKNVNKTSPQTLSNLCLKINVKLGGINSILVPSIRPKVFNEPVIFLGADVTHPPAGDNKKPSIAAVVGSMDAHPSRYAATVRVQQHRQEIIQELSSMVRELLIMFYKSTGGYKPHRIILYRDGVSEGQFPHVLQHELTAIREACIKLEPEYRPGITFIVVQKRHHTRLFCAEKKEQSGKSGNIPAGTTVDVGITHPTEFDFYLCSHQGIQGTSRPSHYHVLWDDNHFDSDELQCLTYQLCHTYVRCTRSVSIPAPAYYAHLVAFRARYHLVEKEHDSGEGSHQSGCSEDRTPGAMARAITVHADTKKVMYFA

“UGAGGUAGUAGGUUGUAUAGU / AAAAAAAAAAAAUCUACCUCU [let-7 / seed-matching target]” gave a Kd [1] of 5 pM.
“UGAGGUAGUAGGUUGUAUAGU / ACUAUACAACCUACUACCUCA [let-7 / fully complementary target]” gave a Kd [1] of 2 pM.
UGUAUAUA [PUM consensus site] gave a Kd [2] of 320 pM.
